Key:
[1] = biological target: TIM-3 expressed on activated human T cells (human (endogenous in activated T cells)) (UniProt Q8TDQ0)
[2] = biological target: TIM-3 expressed on activated human T cells (human (endogenous in activated T cells)) (UniProt Q8TDQ0); assay: Scatchard analysis; on activated human T cells
[3] = biological target: TIM-3 expressed on activated human T cells (human (endogenous in activated T cells)) (UniProt Q8TDQ0); assay: flow cytometry on cells; FACS on activated human T cells

Chain of UniProt Q8TDQ0 (Q8TDQ0 22-301): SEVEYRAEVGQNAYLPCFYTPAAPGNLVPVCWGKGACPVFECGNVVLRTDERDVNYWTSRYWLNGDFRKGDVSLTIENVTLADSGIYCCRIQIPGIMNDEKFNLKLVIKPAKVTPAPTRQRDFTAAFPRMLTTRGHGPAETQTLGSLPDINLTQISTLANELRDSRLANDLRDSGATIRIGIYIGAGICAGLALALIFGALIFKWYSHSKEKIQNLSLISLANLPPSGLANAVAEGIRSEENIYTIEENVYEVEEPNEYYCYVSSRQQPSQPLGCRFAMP

EC50 in a human tumor TIL assay (IFN-gamma; TIL co-cultured with irradiated CHO-OKT3 cells) [1]: 1.2 nM
Kd [2]: 0.16 nM
EC50 [3]: 0.1 nM
Substance: BMS-986258, fully human immunoglobulin (Ig)G1 anti-TIM-3 monoclonal antibody

— paper PMC6220479
